The chains are these.
B1: HDV Ribozyme (parent)
chain: GGCCGGCAUGGUCCCAGCCUCCUCGCUGGCGCCGGCUGGGCAACAUUCCGAGGGGACCGUCCCCUCGGUAAUGGCGAAUGGGACCCA

The values that follow come from the RNAGym collection of RNA variant scans (doi:10.7554/elife.80360).

This data set covers variants of B1. As to the kind of experiment: self-cleavage, relative activity (ratio to wild type); higher = more cleavage; co-transcriptional.
For the variant GGCCGGCAUGGUCCCAGCCUGCUCGCUGGCGCCGGCUGGGUAACAUUCCGAGGGGACCGUCCCCUCGGUAAUGGCGAAUGGGACCCA, the self-cleavage worked out at 0.0941.

Regarding GGCCGGCAUGGUCCCAGCCUCCUCGCUGGCGCCGGCUGGGCAACAUGCCGAGGGGACCGUCCCCUCGGUCAUGGCGAAUGGGACCCA, the self-cleavage was 1.22.

Take GGCCGGCAUGAUCCCAGCCUCCUCACUGGCGCCGGCUGGGCAACAUUCCGAGGGGACCGUCCCCUCGGUAAUGGCGAAUGGGACCCA: the self-cleavage worked out at 0.0755.

On to GGCCGGCAUGGACCCAGCUUCCUCGCUGGCGCCGGCUGGGCAACAUUCCGAGGGGACCGUCCCCUCGGUAAUGGCGAAUGGGACCCA, for which the self-cleavage is 0.0831.

For GGCCGGCAGGGUCCCAGCCUCCUCGCUGGCGCCGGCUGGGCAACAUUCCUAGGGGACCGUCCCCUCGGUAAUGGCGAAUGGGACCCA, the self-cleavage is 1.15.

As for GGCCGGCAUGGUCCCAGCCUCCGCGCUGGCGCAGGCUGGGCAACAUUCCGAGGGGACCGUCCCCUCGGUAAUGGCGAAUGGGACCCA, the self-cleavage was determined as 0.

Consider GGCCGGCAUGGUCCCAGCCUCCUCGCUGGCGCCGGCUGGGCAACAUCCCGAGGGUACCGUCCCCUCGGUAAUGGCGAAUGGGACCCA, for which the self-cleavage came to 0.831.

GGCCGGCAUGGUCCCAGCCUCCUCGCUGGCGCCGGCUGGGCAACAUUCCGAGGGGACAGUCCCCUCGGUAAUGGCGAAUGGUACCCA: the self-cleavage was 0.376.

Consider GGCCGGCAUGGUCCCAGCCUCCUCGCUGGCGCCGGCUGGGCAACAUGCCGUGGGGACCGUCCCCUCGGUAAUGGCGAAUGGGACCCA, for which the self-cleavage worked out at 1.2.

In the case of GGCCGGCAUGGUCCCAGCCUCCUCGCUGGCGCCGGCUGGGCAACCUUUCGAGGGGACCGUCCCCUCGGUAAUGGCGAAUGGGACCCA, the self-cleavage was 0.642.

As to GGCCGGCAUGGUCCCAGCCUCCUCGCUGGCGCCGGCUGGACAACAUUCCGAUGGGACCGUCCCCUCGGUAAUGGCGAAUGGGACCCA, the self-cleavage turned out to be 0.683.

Turning to GGCCGGGAUGGUCCCAGCCUCCUCGCUGGCGCCGGCUGGGCAACAUUCCGGGGGGACCGUCCCCUCGGUAAUGGCGAAUGGGACCCA, the self-cleavage turned out to be 0.237.

For the variant GGCCGGCAUGGUCCCAGCCUCCUCGCUGGCGCCGACUGGGCAGCAUUCCGAGGGGACCGUCCCCUCGGUAAUGGCGAAUGGGACCCA, the self-cleavage is 0.185.

For the variant GGCCGGCACGGUCCCAGCCUCCUCGCUGGCGCCGGCGGGGCAACAUUCCGAGGGGACCGUCCCCUCGGUAAUGGCGAAUGGGACCCA, the self-cleavage was found to be 0.

For the variant GGCCGGCAUGGUCCUAGCCUCCUCGAUGGCGCCGGCUGGGCAACAUUCCGAGGGGACCGUCCCCUCGGUAAUGGCGAAUGGGACCCA, the self-cleavage amounted to 1.05.

As for GGCCGGCAUGGCCCCAGCCUCCUCGCUGGCGCCGGCUGGGCAACAUUUCGAGGGGACCGUCCCCUCGGUAAUGGCGAAUGGGACCCA, the self-cleavage was determined as 0.534.

Turning to GGCCGGCAUGGUCCCAGCCUCCUCGCUUGCGCCGGCUGGGCAACAUUCCGAGGGGACCGUCCCCUCGGUAAUGGCGAAUGGAACCCA, the self-cleavage is 0.191.

With GGCCGGCAUGGUCCCAGCCUCCUCGCUGGCGCCGGCUGGGCAACAUUCCGAGGGGACCGUCCCCUCGGUAAUGUCGCAUGGGACCCA, the self-cleavage is 0.123.

On to GGCCGGCAAGGUCCCAGCCUCCUCGCUGGCGCCGGCUGGGCAACAUUCGGAGGGGACCGUCCCCUCGGUAAUGGCGAAUGGGACCCA, for which the self-cleavage stood at 0.88.

Regarding GACGGGCAUGGUCCCAGCCUCCUCGCUGGCGCCGGCUGGGCAACAUUCCGAGGGGACCGUCCCCUCGGUAAUGGCGAAUGGGACCCA, the self-cleavage is 0.0563.

Consider GGCCGGCAUGGUCCCAGCCUCCUCGCUGGCGACGGCUGGGCAAUAUUCCGAGGGGACCGUCCCCUCGGUAAUGGCGAAUGGGACCCA, for which the self-cleavage was determined as 0.0875.

In the case of GGCCGGCGUGGUCCCAGCCUCCUCGCUCGCGCCGGCUGGGCAACAUUCCGAGGGGACCGUCCCCUCGGUAAUGGCGAAUGGGACCCA, the self-cleavage stood at 0.

For GGCCGGCAUGGUCCCAGCCUCCUCGCUGGCGCCGGCUGGGCAACAUUCCGAGGGGACCGUCCCCUGGGUAAUGGCGAAUGGGACCUA, the self-cleavage was determined as 0.931.

For the variant GGCCGGCAUGGUCCCAGCCUCCUCGCUGGCGCCGGCUGUGCAACAUUCCGAGGGGACCGCCCCCUCGGUAAUGGCGAAUGGGACCCA, the self-cleavage stood at 0.772.

For GGCCGGCAUGGUCCCAGCCUCCUCGCUGGCGCCGGCUGGGCAACAUUCCGAGGGGACCGUCACCUCGCUAAUGGCGAAUGGGACCCA, the self-cleavage worked out at 0.883.

With GGCCGGCAUGGUCCCAGCCUCCUCGCUGGCGCCGGCUGGGCCACAUUCCGAGGGGGCCGUCCCCUCGGUAAUGGCGAAUGGGACCCA, the self-cleavage came out at 0.415.

For the variant GGCCGGCAUGGUCCCAGCCUCCUCGCUGACGCCGGCCGGGCAACAUUCCGAGGGGACCGUCCCCUCGGUAAUGGCGAAUGGGACCCA, the self-cleavage came out at 0.17.

Consider GGCCGGCAUGGUCCCAGCCUCCUCGCUGGCGCCAGCUGGGCAACAUUCCCAGGGGACCGUCCCCUCGGUAAUGGCGAAUGGGACCCA, for which the self-cleavage was 0.267.

For the variant GGCCGGCAUGGUCCAAGCCUCCUCGCUGGCGCAGGCUGGGCAACAUUCCGAGGGGACCGUCCCCUCGGUAAUGGCGAAUGGGACCCA, the self-cleavage amounted to 0.256.

On to GGCCGGCAUGGUCCCAGCCUCCUCGCUGGCGCCGGCUGGACAACAUUCCGGGGGGACCGUCCCCUCGGUAAUGGCGAAUGGGACCCA, for which the self-cleavage is 0.749.

Take GGCCAGCAUGGUCCCAGCCUCCUCUCUGGCGCCGGCUGGGCAACAUUCCGAGGGGACCGUCCCCUCGGUAAUGGCGAAUGGGACCCA: the self-cleavage amounted to 0.0339.

Turning to GGCCUGCAUGGUCCCAGCCUCCUCGCUGGCGCCGGCUGGGCAACAUUCCGAGGGGACUGUCCCCUCGGUAAUGGCGAAUGGGACCCA, the self-cleavage worked out at 0.277.
